Measured values reported in patent US20250025505A1 (BIONTECH, published 2025).

Key:
Assay in all cases: recognition by CLDN6 CAR-T cells, non-clinical study; assay not described
[1] = biological target: T1, CLDN3 (UniProt O15551 1-220, limits assumed)
T1 construct: also called claudin 3
T1 sequence (looked up): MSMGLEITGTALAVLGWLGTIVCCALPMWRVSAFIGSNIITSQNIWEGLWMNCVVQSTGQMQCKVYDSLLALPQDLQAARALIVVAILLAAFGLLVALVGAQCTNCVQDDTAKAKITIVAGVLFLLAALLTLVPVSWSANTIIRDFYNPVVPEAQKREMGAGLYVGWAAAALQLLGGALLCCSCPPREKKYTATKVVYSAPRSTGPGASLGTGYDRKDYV

[2] = biological target: T2, CLDN4 (UniProt O14493 1-209, limits assumed)
T2 construct: also called claudin 4
T2 sequence (looked up): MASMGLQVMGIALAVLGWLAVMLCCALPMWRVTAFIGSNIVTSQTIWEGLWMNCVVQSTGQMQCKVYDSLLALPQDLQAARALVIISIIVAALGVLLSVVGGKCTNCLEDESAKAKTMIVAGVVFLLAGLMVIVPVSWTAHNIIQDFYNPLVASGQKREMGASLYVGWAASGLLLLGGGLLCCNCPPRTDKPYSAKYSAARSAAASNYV

[3] = biological target: T3, CLDN9 (UniProt O95484 1-217, limits assumed)
T3 construct: also called claudin 9
T3 sequence (looked up): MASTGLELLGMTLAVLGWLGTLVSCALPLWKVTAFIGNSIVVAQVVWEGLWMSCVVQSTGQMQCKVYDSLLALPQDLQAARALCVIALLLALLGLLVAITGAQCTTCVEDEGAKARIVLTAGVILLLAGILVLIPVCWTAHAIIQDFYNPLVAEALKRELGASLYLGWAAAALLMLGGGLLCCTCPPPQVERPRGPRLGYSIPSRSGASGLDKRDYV

Measured: binding result

B1: CLDN6-CAR-CD8h-BBz (other)
chain: EVQLQQSGPELVKPGASMKISCKASGYSFTGYTMNWVKQSHGKNLEWIGLINPYNGGTIYNQKFKGKATLTVDKSSSTAYMELLSLTSEDSAVYYCARDYGFVLDYWGQGTTLTVSSGGGGSGGGGSGGGGSDIVLTQSPSIMSVSPGEKVTITCSASSSVSYMHWFQQKPGTSPKLSIYSTSNLASGVPARFSGRGSGTSYSLTISRVAAEDAATYYCQQRSNYPPWTFGGGTKLEIKRSDPATTTPAPRPPTPAPTIASQPLSLRPEACRPAAGGAVHTRGLDFACDIYIWAPLAGTCGVLLLSLVITLYCKRGRKKLLYIFKQPFMRPVQTTQEEDGCSCRFPEEEEGGCELRVKFSRSADAPAYKQGQNQLYNELNLGRREEYDVLDKRRGRDPEMGGKPRRKNPQEGLYNELQKDKMAEAYSEIGMKGERRRGKGHDGLYQGLSTATKDTYDALHMQALPPR
notes: Chimeric antigen receptor, tested on the surface of retrovirally transduced human (or murine) T cells; also called CLDN6-CAR-BBz
no binding: all assays above
